Values joined by “and” are separate entries in the source; they are usually repeats but may differ in a detail not shown here. Identical values can stand only once. Like-named read-outs stand apart in the source and are kept apart here.
B1: 抗H7N9全人源单克隆抗体7T33 (antibody, V domains shown)
VH: QVQLVESGAEVKKPGASVKVSCKASGTIFYSTEINWVRQATGQGLEWMGWMNPESGEYGFAQKFQGRVTMTRNTSITTAYMELSSLTSEDTAVYYCAYGNAECSAGGSCTNWFGEPWGQGTLVTVSS
VL: SSELTQDPAVSVALGQTVRITCQGDRLRSTTASWYQQKPGQAPVLVIYGKNNRPSGIPDRFSGSSSGNTASLTITGAQAEDEADYYCNSREYSGTHLVFGGGTKLTVLV

Tests used:
[1] = biological target: H7N9病毒的HA蛋白(购自ACROBiosystems) (H7N9 influenza virus); test: ELISA, HA coated at 100 ng/well, negative control, anti-human IgG-HRP
[2] = biological target: H7N9病毒的HA蛋白(购自ACROBiosystems) (H7N9 influenza virus)
[3] = biological target: H7N9病毒的HA蛋白(购自ACROBiosystems) (H7N9 influenza virus); remark: listed apart in the source
[4] = biological target: H7N9病毒 A/Anhui/1/2013 (H7N9 influenza virus A/Anhui/1/2013); test: cell-based or functional assay

| Molecule | 450nm absorbance [1] | 450nm absorbance [2] | Kd [3] | IC50, micro-neutralisation ELISA on MDCK cells infected with H7N9 virus [4] |
| --- | --- | --- | --- | --- |
| 阴性对照 (negative control of the ELISA) | 0.0675 OD450 and 0.0554 OD450 |  |  |  |
| B1 |  | 1.53 OD450 and 1.86 OD450 and 1.8 OD450 | 5.43 nM | 12.8 µg/mL |

Source: CN111434682A
